Measured values from the supplement of paper PMC7877785.
± gives the uncertainty stated by the source.

Test: self-splicing fitness, log relative to wild type (ln ratio); higher = more splicing; Tetrahymena group I intron in knt gene, E. coli kanamycin selection, DiMSum; sequences stand for … in CUCUCU…GGAGGGAAAAGUUAUCAGGCAUGCACCUGGUAGCUAGUCUUUAAACCAAUAGAUUGCAUCGGUUUAAAAGGCAAGACCGUCAAAUUGCGGGAAAGGGGUCAACAGCCGUUCAGUACCAAGUCUCAGGGGAAACUUUGAGAUGGCCUUGCAAAGGGUAUGGUAAUAAGCUGACGGACAUGGUCCUAACCACGCAGCCAAGUCCUAAGUCAACAGAUCUUCUGUUGAUAUGGAUGCAGUUCACAGACUAAAUGUCGGUCGGGGAAGAUGUAUUCUUCUCAUAAGAUAUAGUCGGACCUCUCCUUAAUGGGAGCUAGCGGAUGAAGUGAUGCAACACUGGAGCCGCUGGGAACUAAUUUGUAUGCGAAAGUAUAUUGAUUAGUUUUGGAGUACUCGUGGUCG
Summary of the method: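 Fitness was computed with DiMSum as the error-weighted combination of replicate fold changes, kanamycin versus none, each normalised to wild type. The library randomised all eight intron nucleotides of the P1ex region, with the intron placed in the knt kanamycin-resistance gene on pET-22b(+) in E. coli BL21(DE3). Six replicate transformations were grown overnight at 37°C or 30°C on LB agar with or without 25 μg/mL kanamycin, plus 100 μg/mL carbenicillin, 50 μM IPTG and 0.2% rhamnose. Pooled colonies were amplicon-sequenced on an Illumina HiSeq 2500.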

Sequence | self-splicing fitness (ln) (30 °C) | self-splicing fitness (ln) (37 °C)
AUUAAGCAAUAUUACGGUUA | -1.18 ± 0.095 | -1.19 ± 0.085
AUUAAGCAAUAUUACGUAAG | -0.562 ± 0.12 | -0.864 ± 0.19
AUUAAGCAAUAUUACGUCUG | -1.74 ± 0.11 | -0.762 ± 0.12
AUUAAGCAAUAUUACGUGAU | -1.74 ± 0.089 | -1.34 ± 0.12
AUUAAGCAAUAUUACGUGCA | -1.03 ± 0.089 | -0.282 ± 0.11
AUUAAGCAAUAUUACGUGUC | -3.58 ± 0.21 | -1.02 ± 0.16
AUUCAGCAAUAUUACGAAUG | -1.54 ± 0.11 | -0.673 ± 0.13
AUUCAGCAAUAUUACGACAA | -0.461 ± 0.15 | -0.889 ± 0.19
AUUCAGCAAUAUUACGACUC | -0.805 ± 0.19 | 0.11 ± 0.19
AUUCAGCAAUAUUACGAGAU | -2.7 ± 0.17 | -0.722 ± 0.13
AUUCAGCAAUAUUACGCCUC | -1.43 ± 0.15 | 0.286 ± 0.16
AUUCAGCAAUAUUACGCGUG | -1.25 ± 0.054 | -0.218 ± 0.069
AUUCAGCAAUAUUACGGCUA | 0.293 ± 0.09 | -0.022 ± 0.084
AUUCAGCAAUAUUACGUAAA | -0.737 ± 0.08 | -0.148 ± 0.12
AUUCAGCAAUAUUACGUAGG | -1.64 ± 0.13 | -0.941 ± 0.17
AUUCAGCAAUAUUACGUCUG | -2.09 ± 0.11 | -1.33 ± 0.11
AUUCAGCAAUAUUACGUGAU | -0.92 ± 0.061 | -0.187 ± 0.078

Sequence | self-splicing fitness (ln) (30 °C) | self-splicing fitness (ln) (37 °C)
AUUCAGCAAUAUUACGUUCU | -0.926 ± 0.074 | -0.163 ± 0.1
AUUCAGCAAUAUUACGUUGU | -3.14 ± 0.15 | -2.3 ± 0.21
AUUCAGCAAUAUUACGUUUA | -1.18 ± 0.12 | -0.911 ± 0.11
AUUGAGCAAUAUUACGAAAC | -2.48 ± 0.45 | 
AUUGAGCAAUAUUACGAACU | -1.9 ± 0.23 | -0.643 ± 0.2
AUUGAGCAAUAUUACGACAU | -0.372 ± 0.013 | -0.153 ± 0.033
AUUGAGCAAUAUUACGACGG | -4.09 ± 0.31 | -3.4 ± 0.26
AUUGAGCAAUAUUACGAGAA | -2.35 ± 0.45 | -2.62 ± 0.26
AUUGAGCAAUAUUACGAUAA |  | -2.14 ± 0.4
AUUGAGCAAUAUUACGAUAG | -4.02 ± 0.28 | -3.03 ± 0.3
AUUGAGCAAUAUUACGCGCG | -3.04 ± 0.21 | -2.22 ± 0.16
AUUGAGCAAUAUUACGCUGA | -3.1 ± 0.36 | -2.27 ± 0.29
AUUGAGCAAUAUUACGGGAA | -3.22 ± 0.37 | -3.86 ± 0.46
AUUGAGCAAUAUUACGGGGU | -3.33 ± 0.25 | -3.44 ± 0.27
AUUGAGCAAUAUUACGGUUU | -3.23 ± 0.21 | -2.16 ± 0.22
AUUGAGCAAUAUUACGUAUG | -3.63 ± 0.46 | 
AUUGAGCAAUAUUACGUGAA | -2.5 ± 0.15 | -1.74 ± 0.27
